Measured values reported in patent US20220090012A1.

Biological target: Transforming Growth Factor Beta Receptor II (TGFBRII) (human) (UniProt P37173)
Experiment: cell-based or functional assay

Chain of Transforming Growth Factor Beta Receptor II (TGFBRII) (human) (P37173 23-567): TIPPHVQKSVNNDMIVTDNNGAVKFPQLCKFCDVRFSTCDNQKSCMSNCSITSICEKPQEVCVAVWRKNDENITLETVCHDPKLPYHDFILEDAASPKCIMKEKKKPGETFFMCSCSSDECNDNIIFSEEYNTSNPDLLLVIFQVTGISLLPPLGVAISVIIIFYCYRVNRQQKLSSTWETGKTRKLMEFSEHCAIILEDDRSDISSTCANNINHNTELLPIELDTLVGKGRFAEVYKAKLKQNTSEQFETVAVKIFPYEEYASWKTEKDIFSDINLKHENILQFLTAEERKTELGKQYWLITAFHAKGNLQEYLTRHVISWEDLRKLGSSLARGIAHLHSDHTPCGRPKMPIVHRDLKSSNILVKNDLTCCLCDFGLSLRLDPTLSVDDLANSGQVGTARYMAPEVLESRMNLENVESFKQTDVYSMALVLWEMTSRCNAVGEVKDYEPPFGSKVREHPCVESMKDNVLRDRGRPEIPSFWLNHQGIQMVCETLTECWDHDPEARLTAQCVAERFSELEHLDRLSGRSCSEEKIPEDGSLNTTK

CAR T cell expansion (cell number over time) with 10, 20, 50 and 100 ng/ml TGF-β: < 10 ng/mL
Substance: recombinant human TGF-β (from UniProt P28072 35-239) (ligand)
